Results on 7 molecules are retold here after paper PMC2832003.

The target of assay [1] is T1, activin type IIB receptor (ActRIIB), coated on ELISA plates, Q13705. In words: ELISA; competition: quantified conditioned media compete with biotinylated inhibin A for ActRIIB coated on the plate. On the technique in general: ELISA stands for enzyme-linked immunosorbent assay.
Assay [2] addresses T1, activin type IIB receptor (ActRIIB), ….
For assay [3] the target is unchanged. In words: ELISA; 50 ng ActRIIB dried in each well (20 mM HEPES pH 7.4); biotinylated inhibin A or activin A in TBST pH 7.4, 1.5 h, room temperature; streptavidin-HRP; standard binding curve.
The target is the same in assay [4]. In words: ELISA; competition: quantified conditioned media compete with biotinylated activin A for ActRIIB coated on the plate.

By IC50 is commonly meant the concentration needed to halve the response being measured. By EC50 is commonly meant the concentration needed to bring the measured effect to its halfway point. Low values mean an effect from little substance, high ones a need for much substance.

B1: α^HPWR−/βA mutant inhibin A, P05111 233-366; P08476 311-426 (complex)
chain 1: STPLMSWPWSPSALRLLQRPPEEPAAHANCHRVALNISFQELGWERWIVYPPSFIFHYCHGGCGLHIYSLLPGAQPCCAALPGTMRPLHVRTTSDGGYSFKYETVPNLLTQHCACI
chain 2: GLECDGKVNICCKKQFFVSFKDIGWNDWIIAPSGYHANYCEGECPSHIAGTSGSSLSFHSTVINHYRMRGHSPFANLKSCCVPTKLRPMSMLYYDDGQNIIKKDIQNMIVEECGCS
In assay [1], B1 displayed an IC50 of 2.96 nM. In addition, in assay [2], the IC50 of antagonism of activin A (0.4 nM) in the FSHβ-luciferase assay in LβT2 cells, with transfected betaglycan amounted to 0.27 nM and the IC50 of antagonism of activin A (0.4 nM) in the FSHβ-luciferase assay in LβT2 cells, without betaglycan was found to be 0.31 nM.

B2: biotinylated human activin A, P08476 311-426 (complex)
chain: GLECDGKVNICCKKQFFVSFKDIGWNDWIIAPSGYHANYCEGECPSHIAGTSGSSLSFHSTVINHYRMRGHSPFANLKSCCVPTKLRPMSMLYYDDGQNIIKKDIQNMIVEECGCS
modifications: here or on the partner: biotin (EZ-link Micro Sulfo-NHS-LC-biotinylation Kit), sites not stated
In assay [3], B2 displayed an EC50 of 1.1 nM.

B3: wild type chicken inhibin A (α^Chwt/βA), P43031 217-329; P08476 311-426 (complex)
chain 1: SAVPWSPAALSLLQRPSEDVAAHTNCRRASLNISFEELGWDNWIVHPSSFVFHYCHGNCAEGHGLSHRLGVQLCCAALPGTMRSLRVRTTSDGGYSFKYETVPNILAQDCTCV
chain 2: GLECDGKVNICCKKQFFVSFKDIGWNDWIIAPSGYHANYCEGECPSHIAGTSGSSLSFHSTVINHYRMRGHSPFANLKSCCVPTKLRPMSMLYYDDGQNIIKKDIQNMIVEECGCS
As for B3, the IC50 in assay [1] came out at 5.55 nM.

B4: α^Hext−/βA mutant inhibin A, P05111 233-366; P08476 311-426 (complex)
chain 1: STPLMANCHRVALNISFQELGWERWIVYPPSFIFHYCHGGCGLHIPPNLSLPVPGAPPTPAQPYSLLPGAQPCCAALPGTMRPLHVRTTSDGGYSFKYETVPNLLTQHCACI
chain 2: GLECDGKVNICCKKQFFVSFKDIGWNDWIIAPSGYHANYCEGECPSHIAGTSGSSLSFHSTVINHYRMRGHSPFANLKSCCVPTKLRPMSMLYYDDGQNIIKKDIQNMIVEECGCS
modifications: here or on the partner: disulfide-linked heterodimer; alpha-subunit N-glycosylated (CHO-expressed)
In assay [1], B4 had a half-inhibitory concentration (IC50) of 128 nM.

B5: biotinylated human inhibin A, P05111 233-366; P08476 311-426 (complex)
chain 1: STPLMSWPWSPSALRLLQRPPEEPAAHANCHRVALNISFQELGWERWIVYPPSFIFHYCHGGCGLHIPPNLSLPVPGAPPTPAQPYSLLPGAQPCCAALPGTMRPLHVRTTSDGGYSFKYETVPNLLTQHCACI
chain 2: GLECDGKVNICCKKQFFVSFKDIGWNDWIIAPSGYHANYCEGECPSHIAGTSGSSLSFHSTVINHYRMRGHSPFANLKSCCVPTKLRPMSMLYYDDGQNIIKKDIQNMIVEECGCS
modifications: here or on the partner: biotin (EZ-link Micro Sulfo-NHS-LC-biotinylation Kit), sites not stated | biotin (EZ-link Micro Sulfo-NHS-LC-biotinylation Kit), sites not stated
In turn, B5 came in with an EC50 in assay [3] of 2.73 nM.

B6: wild type human inhibin A (α^Hwt/βA), P05111 233-366; P08476 311-426 (complex)
chain 1: STPLMSWPWSPSALRLLQRPPEEPAAHANCHRVALNISFQELGWERWIVYPPSFIFHYCHGGCGLHIPPNLSLPVPGAPPTPAQPYSLLPGAQPCCAALPGTMRPLHVRTTSDGGYSFKYETVPNLLTQHCACI
chain 2: GLECDGKVNICCKKQFFVSFKDIGWNDWIIAPSGYHANYCEGECPSHIAGTSGSSLSFHSTVINHYRMRGHSPFANLKSCCVPTKLRPMSMLYYDDGQNIIKKDIQNMIVEECGCS
For the molecule B6, in assay [1], the IC50 amounted to 9.01 nM.

B7: wild type human activin A (βA/βA dimer), P08476 311-426 (complex)
chain: GLECDGKVNICCKKQFFVSFKDIGWNDWIIAPSGYHANYCEGECPSHIAGTSGSSLSFHSTVINHYRMRGHSPFANLKSCCVPTKLRPMSMLYYDDGQNIIKKDIQNMIVEECGCS
B7: in assay [4], the IC50 was 4.14 nM.
